This test concerns the target CagFbFP-I52T-Q148K (Chloroflexus aggregans) (UniProt B8GAY9). The test is described as follows: crystal structure.

In turn, “CagFbFP-I52T-Q148K (from UniProt B8GAY9 47-153) (domain or fragment)” gave a stoichiometry N of 2.

As usually defined, the stoichiometry N is a count of units in the complex or per binding partner.

These data come from article doi:10.1101/2021.01.08.425906.
